The Kd is the concentration at which binding is half-saturated.

Residue numbers refer to the chain shown, from its start. Numbers in names are those of the source. Ends that are not written are not given here. * marks the point of attachment. FITC = O=C1OC2(c3ccc(O)cc3Oc3cc(O)ccc32)c2ccc(NC(=S)*)cc21

The results in this text go back to article PMC9929924, “Phosphorylation of the receptor protein Pex5p modulates import of proteins into peroxisomes” (Biological Chemistry, 2022).

Assay [1] addresses T1, Pex5p wildtype, recombinant His6-tagged (HisPex5p) (S. cerevisiae, UniProt P35056 1-612).
T1 construct: Pex5p, PTS1 receptor of Saccharomyces cerevisiae, UniProtKB P35056, full length; No cleavage of the His tag is described; the native MS mass of the monomer is printed as 71.459 kDa; also called Pex5p^WT; source: E. coli BL21 RIL (DE3), purified (Ni-NTA, MonoQ anion exchange, SEC)
T1 sequence (looked up): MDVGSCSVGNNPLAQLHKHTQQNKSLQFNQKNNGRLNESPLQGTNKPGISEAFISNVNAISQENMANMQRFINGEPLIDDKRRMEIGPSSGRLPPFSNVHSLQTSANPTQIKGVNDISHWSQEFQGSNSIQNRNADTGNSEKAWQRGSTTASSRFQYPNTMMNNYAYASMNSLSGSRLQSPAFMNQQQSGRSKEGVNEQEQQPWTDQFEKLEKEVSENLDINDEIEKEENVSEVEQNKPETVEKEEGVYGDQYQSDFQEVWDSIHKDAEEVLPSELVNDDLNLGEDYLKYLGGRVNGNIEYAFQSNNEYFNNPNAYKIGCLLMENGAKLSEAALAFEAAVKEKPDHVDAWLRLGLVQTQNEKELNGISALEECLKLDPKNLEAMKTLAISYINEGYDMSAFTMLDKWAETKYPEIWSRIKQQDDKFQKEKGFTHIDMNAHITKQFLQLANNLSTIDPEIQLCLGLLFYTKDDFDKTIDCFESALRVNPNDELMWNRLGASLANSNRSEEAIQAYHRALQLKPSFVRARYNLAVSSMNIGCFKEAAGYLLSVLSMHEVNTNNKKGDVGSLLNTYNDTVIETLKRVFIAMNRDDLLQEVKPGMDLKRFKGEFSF
The experiment in a line: fluorescence polarisation; fluorescence anisotropy; 10 nM FITC-labelled peptide, serial dilutions of Pex5p variant 1.5 nM to 6.6 µM; 50 mM HEPES pH 7.5, 150 mM NaCl; one-site binding-saturation fit. The following applies: both partners purified.

Assay [2] has as its system GFP-SKL import in pex5Δ yeast cells. The assay is described as follows: Fluorescence microscopy, import of GFP-SKL in cells expressing Pex5p variants. Format: cell-based, S. cerevisiae. Particulars: pex5Δ cells expressing plasmid-encoded Pex5p variant and GFP-SKL; grown in oleate. As to the method: Cells expressing distinct Pex5p variants (wildtype, Pex5p^2A or Pex5p^2D) and GFP-SKL were grown overnight in 50 ml YNO medium supplemented with 0.1% (w/v) glucose to an OD600 of 1–1.5. Aliquots of 5.4 ml were taken and formaldehyde was added to a final concentration of 3.7% (v/v). Samples were incubated for 10 min at RT with slight agitation. Cells were collected by centrifugation (5 min at 2000 g), resuspended in 1 ml of 0.1 M potassium phosphate buffer (pH 6.8) containing 3.7% (v/v) formaldehyde and incubated for 1 h at RT with slight agitation. Following centrifugation (30 s at 16,000 g), cells were resuspended in 1 ml of 0.1 M potassium phosphate buffer (pH 6.8) containing 10 mM ethanolamine and incubated for further 10 min at RT. Subsequently, cells were washed twice with phosphate-buffered saline (PBS) and resuspended in 10–20 µl of PBS containing 0.1% (v/v) Triton X-100. Fixed cells were analyzed within 48 h after preparation.
Fluorescence microscopy was performed using a Zeiss Axio Observer.Z1 microscope equipped with an alpha Plan-Aprochromat 100× objective and an AxioCam MR R3. GFP signal was visualized with a 38 HE filterset from Zeiss. Images were processed using Adobe Photoshop CS5 (version 12.0.4 ×64; Adobe Systems Incorporated). To document the structural integrity of cells, bright field images were acquired, adjusted in a way that only the cell boundaries were visible and subsequently added into the blue channel in Photoshop as reported before ([Motley and Hettema 2007]).

B1: Pcs60p nonapeptide, FITC-YKSSRNKSKL (peptide)
peptide: {FITC}-YKSSRNKSKL
notes: tyrosine added to the peptide amino-terminus for concentration measurements; the nine carboxy-terminal residues of Pcs60p, S. cerevisiae; An extra N-terminal tyrosine stands before the natural stretch; also called Pcs60p peptide; source: synthetic peptide (GenScript)
For B1, the Kd in assay [1] was determined as 643 nM.

B2: Pex5p^S507D (protein, UniProt P35056 1-612, looked up, variant S507D)
Peroxisomal targeting signal …: T1 sequence (looked up) with S507D
In the case of B2, the “subcellular distribution of GFP-SKL” value in assay [2] is “wildtype-like distribution of GFP-SKL”.

B3: Pex5p^S523D (protein, UniProt P35056 1-612, looked up, variant S523D)
Peroxisomal targeting signal …: T1 sequence (looked up) with S523D
As to B3, the “subcellular distribution of GFP-SKL” value in assay [2] was “wildtype-like distribution of GFP-SKL”.
